Data published in patent US20200206312A1 (EISAI, published 2020).

Key:
[1] = molecular target: T1, Recombinant human NRP1 with His Tag (Sino Biological Inc.; Cat #1001-H08H) (human, UniProt O14786-2 22-644); assay: BLI (Octet Red96), biotinylated VEGF165 on streptavidin sensor, NRP1 in solution
T1 construct: also called Neuropilin 1
T1 sequence (looked up): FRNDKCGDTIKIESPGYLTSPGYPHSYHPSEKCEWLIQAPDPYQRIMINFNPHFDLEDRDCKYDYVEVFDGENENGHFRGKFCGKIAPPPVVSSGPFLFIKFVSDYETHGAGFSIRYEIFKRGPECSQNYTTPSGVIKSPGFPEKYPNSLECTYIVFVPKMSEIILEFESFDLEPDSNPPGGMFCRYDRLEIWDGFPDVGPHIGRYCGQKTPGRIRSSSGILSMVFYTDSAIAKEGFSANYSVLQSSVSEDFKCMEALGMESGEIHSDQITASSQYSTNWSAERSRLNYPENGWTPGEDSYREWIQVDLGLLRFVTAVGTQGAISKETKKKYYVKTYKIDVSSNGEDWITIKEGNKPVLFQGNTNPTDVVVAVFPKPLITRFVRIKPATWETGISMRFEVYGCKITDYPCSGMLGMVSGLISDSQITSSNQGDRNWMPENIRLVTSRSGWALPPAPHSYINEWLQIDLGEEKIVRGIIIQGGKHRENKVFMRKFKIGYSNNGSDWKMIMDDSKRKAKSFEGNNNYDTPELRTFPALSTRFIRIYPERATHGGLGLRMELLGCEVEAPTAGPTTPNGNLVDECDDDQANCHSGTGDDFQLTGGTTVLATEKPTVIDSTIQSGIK

[2] = molecular target: T1, Recombinant human NRP1 with His Tag …; assay: BLI (Octet Red96), biotinylated VEGF165 on streptavidin sensor, NRP1 in solution; value 1 of 6 in the cell
[3] = molecular target: T1, Recombinant human NRP1 with His Tag …; assay: BLI (Octet Red96), biotinylated VEGF165 on streptavidin sensor, NRP1 in solution; value 2 of 6 in the cell
[4] = molecular target: T1, Recombinant human NRP1 with His Tag …; assay: BLI (Octet Red96), biotinylated VEGF165 on streptavidin sensor, NRP1 in solution; value 5 of 6 in the cell
[5] = molecular target: T1, Recombinant human NRP1 with His Tag …; assay: BLI (Octet Red96), biotinylated VEGF165 on streptavidin sensor, NRP1 in solution; value 6 of 6 in the cell
[6] = molecular target: T1, Recombinant human NRP1 with His Tag …; assay: BLI (Octet Red96), biotinylated VEGF165 on streptavidin sensor, NRP1 in solution; value 3 of 6 in the cell
[7] = molecular target: T1, Recombinant human NRP1 with His Tag …; assay: BLI (Octet Red96), biotinylated VEGF165 on streptavidin sensor, NRP1 in solution; value 4 of 6 in the cell

B1: Biotinylated recombinant Human VEGF165 (ACRO Biosystems; Cat # VE5-H8210) (ligand, UniProt P15692-4 27-191, looked up)
chain: APMAEGGGQNHHEVVKFMDVYQRSYCHPIETLVDIFQEYPDEIEYIFKPSCVPLMRCGGCCNDEGLECVPTEESNITMQIMRIKPHQGQHIGEMSFLQHNKCECRPKKDRARQENPCGPCSERRKHLFVQDPQTCKCSCKNTDSRCKARQLELNERTCRCDKPRR
notes: also called biotinylated VEGF
- Kd [1]: 40 to 98 nM
- Kd [2]: 43 nM
- Kd [3]: 26 nM
- Kd [4]: 18 nM
- Kd [5]: 26 nM
- Kd [6]: 75 nM
- Kd [7]: 98 nM
